Our source for the self-cleavage values is the RNAGym collection of RNA variant scans (doi:10.7554/elife.80360).

B1: CPEB3 Ribozyme (parent)
chain: GGGGGCCACAGCAGAAGCGUUCACGUCGCGGCCCCUGUCAGAUUCUGGUGAAUCUGCGAAUUCUGCUGU

This data set covers variants of B1. In words: self-cleavage, relative activity (ratio to wild type); higher = more cleavage; co-transcriptional.
Turning to G5U C54A, the self-cleavage is 0.104.
In the case of G5U C54G, the self-cleavage stood at 0.106.
Take C6A A13U: the self-cleavage came out at 0.346.
To C6A A13C belongs 0.262; to G5A G47U, 0.932.
The result for C6A U43C reads 0.412; that for C6A U43A, 0.294; that for G5A C9G, 0.982.
As for G5A C9U, the self-cleavage amounted to 1.02.
To G4U C18A belongs 0.0913; to C6A C63G, 0.205; to C6A C63U, 0.505.
The result for G5A C63G reads 0.448; that for G5U U38G, 0.0473; that for G5U U38A, 0.235.
To G4U U49C belongs 0.758; to G4U U49A, 0.821; to G5U C6G, 0.115.
On to G5U C6A, for which the self-cleavage was found to be 0.0825.
To C6G A16G belongs 0.127; to C6A U61A, 0.217.
To G5A G65U belongs 0.513; to C6A U62A, 0.175; to C6A U62G, 0.211.
To G5U C57U belongs 0.0743; to G5U C57G, 0.115.
With G5C G19C, the self-cleavage was found to be 0.0995.
To G5U A16C belongs 0.042; to G5A G37A, 0.143; to G4U C22G, 0.0672.
To G5U U62C belongs 0.143.
The result for G5U U62G reads 0.103.
G4U G48C: the self-cleavage came out at 0.752.
To G4U G48U belongs 0.813; to G5C U38A, 0.145.
The result for G5C U38C reads 0.12; that for G5C C29G, 0.113.
To G5A A16C belongs 0.134.
With G5A C29G, the self-cleavage came out at 0.175.
As for C6A A59C, the self-cleavage came out at 0.221.
To C6A A59U belongs 0.202; to G5A G30C, 0.156; to G5A G30A, 0.156.
The result for C6G A59U reads 0.152; that for G5C C54A, 0.123; that for G4U G65C, 0.411.
To G4U G65U belongs 0.254; to G5C C33U, 0.468; to C6A G56A, 0.423.
For the variant C6A G56U, the self-cleavage was 0.44.
Turning to G5A C33U, the self-cleavage came to 0.568.
To G5U G11A belongs 0.185; to G5U G11C, 0.0768; to G4U C63A, 0.306.
In the case of G4U C63U, the self-cleavage was 0.739.
To G4U U69G belongs 0.941; to G4U U69C, 1.02; to G5A U20A, 0.0737.
C6A C45A: the self-cleavage was 0.523.
To G4U C57A belongs 0.17; to G5C C32U, 0.703; to G5C C32A, 0.805.
To C6A C29G belongs 0.179; to G5U A15C, 0.0532; to G5U A15G, 0.19.
Regarding G5U A15U, the self-cleavage was 0.092.
The result for G5C G58C reads 0.293; that for G5C G58A, 0.198; that for G4U A10G, 0.784.
To G4U A10C belongs 0.905; to G5U A52C, 0.176; to G4U C24U, 0.193.
In the case of G5U G56U, the self-cleavage stood at 0.104.
The result for G5U G56A reads 0.137.
To G5U G56C belongs 0.163.
For the variant G5U U67C, the self-cleavage was 0.628.
To G5U U67A belongs 0.743.
The result for G5C U26C reads 0.109; that for C6A G17A, 0.131.
As to G5U A40G, the self-cleavage is 0.171.
The result for G5U A40U reads 0.132.
As to G5C U69C, the self-cleavage came to 0.568.
To G5U G65C belongs 0.205; to C6G A13C, 0.163.
To C6G A13U belongs 0.123.
The result for G5U G19A reads 0.06; that for G5C G48C, 0.245.
Turning to G5C G48U, the self-cleavage came out at 0.194.
The result for G5A C34U reads 0.599; that for G5A C34A, 0.203; that for G5U G37A, 0.11.
To G5C G31A belongs 0.2.
To G5C G31C belongs 0.0712.
G5A G17C: the self-cleavage was 0.0889.
For the variant G5A G17A, the self-cleavage was determined as 0.166.
To G4U G41A belongs 0.265; to G4U G41U, 0.251.
To G4U U61G belongs 0.439; to G4U U61A, 0.154; to G5U U49G, 0.171.
To G5A C6G belongs 0.0495; to G5C C12G, 0.141; to G5C C12U, 0.256.
Regarding G5C G50U, the self-cleavage worked out at 0.243.
Consider C6A A15G, for which the self-cleavage stood at 0.467.
To C6A A15U belongs 0.176; to C6A C9U, 0.94.
Regarding G5C U46G, the self-cleavage was 0.235.
On to G5A U36G, for which the self-cleavage was 0.521.
To G5A U36C belongs 0.831; to G4U A15G, 0.678.
To G4U A15C belongs 0.138; to G5U G50A, 0.309.
To G5U G48A belongs 0.39.
As to G5U C29U, the self-cleavage was 0.103.
The result for G4U U21G reads 0.054; that for G5A U62G, 0.447.
The result for G5A U62A reads 0.492.
To G5A C39U belongs 0.653; to G5U U61G, 0.0827.
In the case of G4U C66G, the self-cleavage came to 0.431.
To G4U G56A belongs 0.466; to G5U U69A, 0.503.
The result for G5U U69C reads 0.749.
The result for G5C U44A reads 0.24; that for G5C U44G, 0.203.
In the case of G5A A42C, the self-cleavage was determined as 0.505.
With G5C U43A, the self-cleavage was found to be 0.183.
To G5A U21G belongs 0.161; to G5A A13U, 0.642; to G5A A13G, 0.88.
To G4U G68A belongs 0.983; to G4U G68C, 0.97.
To G5C C7U belongs 0.156.
For the variant C6A U38A, the self-cleavage turned out to be 0.3.
To G4U G58U belongs 0.798.
Consider G4U G28A, for which the self-cleavage was 0.0947.
With G4U G28U, the self-cleavage turned out to be 0.0847.
In the case of G5C G25A, the self-cleavage was 0.0822.
On to G5U A8U, for which the self-cleavage was found to be 0.151.
As to C6A U36A, the self-cleavage was determined as 0.128.
To C6A U36G belongs 0.138; to C6A G50A, 0.708.
To G5A U67A belongs 0.953; to G5A C12U, 0.931; to G5C A10U, 0.341.
The result for C6G A15U reads 0.128; that for C6G A15G, 0.212.
As for C6A G19U, the self-cleavage amounted to 0.131.
The result for G4U G17U reads 0.072; that for G4U G17C, 0.112.
C6A C7G: the self-cleavage stood at 0.0736.
The result for C6A C7U reads 0.115.
To G5C C27G belongs 0.0907; to G5C C27A, 0.109; to G5U U26C, 0.155.
As for G5C A59C, the self-cleavage was 0.135.
To G5C A59U belongs 0.14.
The result for G5A G48U reads 0.939.
To G5A G48C belongs 0.956; to G5C A16G, 0.205.
On to G5C A16U, for which the self-cleavage came to 0.169.
The result for G5C A16C reads 0.0946; that for G5C A60G, 0.215.
To G5C A60C belongs 0.171.
To G5C A60U belongs 0.164.
Take G5C U53C: the self-cleavage was 0.151.
